According to patent US20250282879A1:
Positions count from the first letter of the chain named. Like-named read-outs stand apart in the source and are kept apart here. Blank lines part the entries; values can stand above or below the binder they belong to.

Columns and labels:
[1] = molecular target: human IL-4R on cells (HEK-Blue IL-4/IL-13 cells, human PBMC, human whole blood) (human) (UniProt P24394); assay: cell-based or functional assay
Human IL-4R-Fc (human) = Human IL-4R-Fc (human) (UniProt P24394); assay: SPR, hIL-4R-Fc captured, scFv analyte
[2] = molecular target: marmoset IL-4R ECD (marmoset (Callithrix jacchus)) (UniProt Q0PIT7); assay: SPR, direct setup, marmoset IL-4R ECD immobilized
[3] = molecular target: cynomolgus IL-4R-Fc (cynomolgus monkey (Macaca fascicularis)); assay: SPR, capture setup, cynomolgus IL-4R-Fc captured
[4] = molecular target: cynomolgus IL-4R ECD (cynomolgus monkey (Macaca fascicularis)); assay: SPR, direct setup, cynomolgus IL-4R ECD immobilized
[5] = molecular target: recombinant human IL-31 protein (Peprotech) (human) (UniProt Q6EBC2); assay: cell-based or functional assay
[6] = molecular target: recombinant cynomolgus monkey IL-31 (ECD with His Tag, Sino Biological) (cynomolgus monkey); assay: SPR, IL-31-His captured, scFv analyte (30 and 10 nM)
[7] = molecular target: recombinant cynomolgus monkey IL-31 (ECD with His Tag, Sino Biological) (cynomolgus monkey); assay: SPR, IL-31-His captured, scFv analyte, screening mode
[8] = molecular target: recombinant cynomolgus monkey IL-31 (ECD with His Tag, Sino Biological) (cynomolgus monkey); assay: SPR, IL-31-His captured, scFv analyte, full titration mode
[9] = molecular target: recombinant human IL-31 protein (Peprotech) (human) (UniProt Q6EBC2)
[10] = molecular target: recombinant human IL-31 protein (Peprotech) (human) (UniProt Q6EBC2); remark: listed apart in the source
[11] = molecular target: recombinant cynomolgus monkey IL-31 (ECD with His Tag, Sino Biological) (cynomolgus monkey)
[12] = molecular target: recombinant human IL-31 protein (Peprotech) (human) (UniProt Q6EBC2); remark: listed apart in the source
[13] = molecular target: recombinant human IL-31 protein (Peprotech) (human) (UniProt Q6EBC2); remark: listed apart in the source

Chain of marmoset IL-4R ECD (marmoset (Callithrix jacchus)) (Q0PIT7 entry or part of it limits assumed): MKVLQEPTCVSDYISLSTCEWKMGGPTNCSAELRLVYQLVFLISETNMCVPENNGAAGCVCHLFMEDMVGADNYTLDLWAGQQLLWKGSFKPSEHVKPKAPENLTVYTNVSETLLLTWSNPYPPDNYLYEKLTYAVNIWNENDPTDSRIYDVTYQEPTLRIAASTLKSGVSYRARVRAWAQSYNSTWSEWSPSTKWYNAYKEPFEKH
Chain of cynomolgus IL-4R-Fc (cynomolgus monkey (Macaca fascicularis)) (chain, as listed by the source): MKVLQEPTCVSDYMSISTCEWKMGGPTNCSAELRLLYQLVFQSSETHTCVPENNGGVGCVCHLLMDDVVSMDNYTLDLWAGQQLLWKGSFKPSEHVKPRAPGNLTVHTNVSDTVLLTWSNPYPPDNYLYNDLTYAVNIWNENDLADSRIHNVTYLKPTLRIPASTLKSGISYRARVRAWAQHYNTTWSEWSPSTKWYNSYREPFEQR
Chain of cynomolgus IL-4R ECD (cynomolgus monkey (Macaca fascicularis)) (A0A2K5 entry or part of it limits assumed): as the sequence (chain, as listed by the source) above
Chain of recombinant human IL-31 protein (Peprotech) (human) (Q6EBC2 24-164 limits assumed): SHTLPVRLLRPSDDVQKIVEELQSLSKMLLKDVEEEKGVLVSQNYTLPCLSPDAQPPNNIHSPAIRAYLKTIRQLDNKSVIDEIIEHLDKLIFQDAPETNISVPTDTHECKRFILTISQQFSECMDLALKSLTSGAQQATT

B1: PRO1517 (scFv, V domains shown)
VH: EVQLVESGGGLVQPGGSLRLSCAASGFSSSSAHYMCWVRQAPGKGLEWIGCIYAGSRGSTYYASWAKGRFTISRDNSKNTVYLQMNSLRAEDTAVYYCARAAFVNRGVSWIWPYYFSLWGQGTLVTVSS
VL: DIQMTQSPSSLSASVGDRVTITCQASEDIESYLAWYQQKPGKAPKLLIYRASTLAYGVPSRFSGSGSGTDFTLTISSLQPEDFATYYCLGSSYSTGSNIFGTGTKVTVLG
IC50, neutralization of hIL-4-induced signaling, stat-6 reporter gene assay [1]: 1.44 ng/mL
IC50, neutralization of hIL-13-induced signaling, stat-6 reporter gene assay [1]: 1.83 ng/mL
rel. IC50 (IC50, dupilumab/IC50, test sample), hIL-4 [1]: 0.39
rel. IC50 (IC50, dupilumab/IC50, test sample), hIL-13 [1]: 0.57
Kd (Human IL-4R-Fc (human)): 5.5 pM
koff (Human IL-4R-Fc (human)): 1.95e-05 s⁻¹
kon (Human IL-4R-Fc (human)): 3.55e+06 M⁻¹ s⁻¹
Kd [2]: 392 pM
koff [2]: 0.00105 s⁻¹
kon [2]: 2.67e+06 M⁻¹ s⁻¹
Kd [3]: 94.6 pM
koff [3]: 0.000182 s⁻¹
kon [3]: 1.92e+06 M⁻¹ s⁻¹
Kd [4]: 681 pM
koff [4]: 0.000404 s⁻¹
kon [4]: 594000 M⁻¹ s⁻¹

B2: PRO1898 (scFv, V domains shown)
VH: B1 VH
VL: B1 VL with S14R, T69R
IC50, neutralization of hIL-4 induced signaling, stat-6 reporter gene assay [1]: 1 ng/mL
IC50, neutralization of hIL-13 induced signaling, stat-6 reporter gene assay [1]: 1.15 ng/mL
rel. IC50 (IC50, dupilumab/IC50, test sample), hIL-4 [1]: 1.15
rel. IC50 (IC50, dupilumab/IC50, test sample), hIL-13 [1]: 0.87

B6: PRO1643 (scFv, V domains shown)
VH: QSQLVESGGGLVQPGGSLRLSCAASGFSFSANYWICWVRQAPGKGLEWIVCIYIGSRADTYYAPWAKGRFTISKDNSKNTVYLQMNSLRAEDTAVYFCARFSSGIYDLDRFFLWGQGTLVTVSS
V domain: AFQLTQSPSSLSASVGDRVTITCQASQSIDSWLAWYQQKPGKPPKLLIYQASKLASGVPSRFSGSGSGTDYTLTISSLQPEDFATYYCQTYYGGGHIGWGFGTGTKVTV
Kd [7]: 583 pM
koff [7]: 0.000444 s⁻¹
kon [7]: 761000 M⁻¹ s⁻¹
Kd [8]: 557 pM
koff [8]: 0.000426 s⁻¹
kon [8]: 764000 M⁻¹ s⁻¹
Kd [6]: 1170 pM
koff [6]: 0.000587 s⁻¹
kon [6]: 501000 M⁻¹ s⁻¹

B7: BMS-981164 (antibody, from another filing, V domains shown)
VH: QVQLVQSGAEVKKPGASVKVSCKASGYTLTRYWMQWVRQAPGQGLEWMGAIYPGDGDTRYSQKFQGRVTLTADKSTSTAYMELSSLRSEDTAVYYCAFPDGYYAAPYGMDYWGQGTLVTVSS
VL: DIQMTQSPSSLSASVGDRVTITCRASGNIHNYLAWYQQKPGKVPKLLIYNAKTLADGVPSRFSGSRSETQYSLTISSLQPEDVATYYCQHFWSTPWTFGQGTKVEIKR
IC50 (read off the curve), human IL-31-induced IL-31RA/OSMR dimerization [9]: 70 pM
IC50 (read off the curve), human IL-31-induced IL-31RA/OSMR dimerization [10]: 200 pM
IC50, cynomolgus IL-31-induced IL-31RA/OSMR dimerization (RLU) [table under the graph] [11]: 178 pM
IC50 (read off the curve), human IL-31-induced IL-31RA/OSMR dimerization [12]: 100 pM
IC50 (read off the curve), human IL-31-induced IL-31RA/OSMR dimerization [13]: 60 pM

Continued, values first:

IC50, neutralization of hIL-4 induced signaling, stat-6 reporter gene assay [1]: 0.71 ng/mL
IC50, neutralization of hIL-13 induced signaling, stat-6 reporter gene assay [1]: 0.56 ng/mL
rel. IC50 (IC50, dupilumab/IC50, test sample), hIL-4 [1]: 1.61
rel. IC50 (IC50, dupilumab/IC50, test sample), hIL-13 [1]: 1.8
B3: PRO1899 (scFv, V domains shown)
VH: EVQLVESGGGRVQPGGSLRLSCAASGFSSSSAHYMCWVRQAPGKGLEWIGCIYAGSRGSTYYASWAKGRFTISKASSTTVYLQMNSLRAEDTATYYCARAAFVNRGVSWIWPYYFSLWGQGTQVTVSS
VL: B1 VL

IC50, neutralization of hIL-31-induced signaling in IL-31RA/OSMR dimerization assay [5]: 8.21 ng/mL
rel. IC50 (IC50, BMS-981164/IC50, test sample) [5]: 0.73
Kd [6]: 1070 pM
koff [6]: 0.000594 s⁻¹
kon [6]: 554000 M⁻¹ s⁻¹
B4: PRO1900 (scFv, V domains shown)
VH: B6 VH with L11R, V95T, L119Q
V domain: B6 V domain

IC50, neutralization of hIL-31-induced signaling in IL-31RA/OSMR dimerization assay [5]: 7.98 ng/mL
rel. IC50 (IC50, BMS-981164/IC50, test sample) [5]: 1.49
Kd [6]: 1390 pM
koff [6]: 0.000605 s⁻¹
kon [6]: 434000 M⁻¹ s⁻¹
B5: PRO1903 (scFv, V domains shown)
VH: B6 VH
V domain: B6 V domain with D30E
